Data from patent US20140087995A1 (published 2014).
Values belong to the binder of their own block, whether it stands above or below them. Numbered stars: 1 amine (or outer) side, 2 acyl side, 3 side chain; on linkers, the order of the positions; unused ones are H or OH. Bridge positions count the residues as written; N and C are the ends. Side chains are listed from the residue outwards. Ends that are not written are not given here. * marks the point of attachment. C20 diacid = O=C(O)CCCCCCCCCCCCCCCCCCC(=O)*; γGlu = O=C(O)[C@H](CCC(=O)[*:2])N[*:1]; AEEA = NCCOCCOCC(=O)O

Columns and labels:
[1] = molecular target: T1, human amylin receptor (amylin 3(a) receptor: human calcitonin receptor plus RAMP-3) (human, UniProt P30988 25-474; O60896 24-148); assay: cell-based or functional assay
T1 sequence (looked up) 1: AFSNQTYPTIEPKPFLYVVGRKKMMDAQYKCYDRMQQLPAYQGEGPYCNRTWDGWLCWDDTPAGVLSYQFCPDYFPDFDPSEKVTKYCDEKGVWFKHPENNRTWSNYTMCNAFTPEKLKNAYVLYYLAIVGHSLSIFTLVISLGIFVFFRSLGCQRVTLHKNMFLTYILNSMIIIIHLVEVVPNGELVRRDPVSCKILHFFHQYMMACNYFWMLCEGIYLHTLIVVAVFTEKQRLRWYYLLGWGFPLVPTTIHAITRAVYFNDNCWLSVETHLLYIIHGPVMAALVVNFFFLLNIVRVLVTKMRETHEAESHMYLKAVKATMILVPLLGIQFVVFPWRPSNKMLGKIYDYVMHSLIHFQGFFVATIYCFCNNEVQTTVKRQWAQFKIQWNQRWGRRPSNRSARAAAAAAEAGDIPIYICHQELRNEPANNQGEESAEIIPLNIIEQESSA
T1 sequence (looked up) 2: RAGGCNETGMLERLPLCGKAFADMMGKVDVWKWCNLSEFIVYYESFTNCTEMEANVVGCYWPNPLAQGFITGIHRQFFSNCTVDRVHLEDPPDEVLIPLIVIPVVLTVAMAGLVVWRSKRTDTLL

[2] = molecular target: T2, human calcitonin receptor (human, UniProt P30988 25-474); assay: cell-based or functional assay
T2 sequence (looked up): T1 sequence (looked up) 1

[3] = molecular target: T1, human amylin receptor (amylin 3(a) …); assay: SPA competition binding, displacement of 125I-rat amylin, membranes of BHK amylin 3(a)/CRE-luc cells
Outline: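 Cell membranes were prepared by homogenisation in Na-HEPES/EDTA buffer, pH 7.4, and stored at −80° C. They were then coupled to SPA beads at 35 ng/μL final and exposed to compounds in assay buffer containing CaCl2, MgCl₂, OA and Tween20. After 120 min at 25° C, plates were counted and IC₅₀ derived.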

[4] = molecular target: T3, rat calcitonin receptor (rat, UniProt P32214 25-516); assay: SPA competition with 125I-calcitonin, membranes of BHK cells with rat calcitonin receptor (Assay VIII)
T3 construct: whole, on cells; Used as membranes prepared from the transfected cells; also called rCTR; rat calcitonin (a) receptor
T3 sequence (looked up): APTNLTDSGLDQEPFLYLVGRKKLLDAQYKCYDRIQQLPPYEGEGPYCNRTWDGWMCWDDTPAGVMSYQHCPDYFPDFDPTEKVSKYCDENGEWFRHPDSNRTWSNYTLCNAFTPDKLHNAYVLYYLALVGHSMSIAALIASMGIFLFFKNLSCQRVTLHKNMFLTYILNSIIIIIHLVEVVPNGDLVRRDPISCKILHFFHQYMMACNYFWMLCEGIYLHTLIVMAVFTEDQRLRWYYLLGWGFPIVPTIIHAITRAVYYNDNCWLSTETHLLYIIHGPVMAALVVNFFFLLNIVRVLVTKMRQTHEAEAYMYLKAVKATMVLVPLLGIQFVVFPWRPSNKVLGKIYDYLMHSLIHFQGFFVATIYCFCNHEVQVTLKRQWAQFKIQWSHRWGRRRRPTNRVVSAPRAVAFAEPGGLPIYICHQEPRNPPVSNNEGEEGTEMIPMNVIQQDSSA

[5] = molecular target: T4, rat amylin receptor (rat calcitonin receptor + rat RAMP 3) (rat, UniProt P32214 25-516; Q9JJ73 23-147); assay: SPA competition with 125I-rat amylin, membranes of BHK cells with rat calcitonin receptor + rat RAMP3 (Assay VI)
T4 construct: whole, on cells; Used as membranes prepared from the transfected cells; also called rAmylin-R; rat amylin 3(a) receptor
T4 sequence (looked up) 1: T3 sequence (looked up)
T4 sequence (looked up) 2: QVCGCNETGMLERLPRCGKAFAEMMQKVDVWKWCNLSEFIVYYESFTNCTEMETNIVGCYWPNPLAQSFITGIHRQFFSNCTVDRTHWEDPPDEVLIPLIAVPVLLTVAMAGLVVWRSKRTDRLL

- Ratio hCT/hAmylin funct. [1]: 6
- hAmylin-R funct. EC50 (pM) [1]: 222 pM
- hCTR funct. EC50 (pM) [2]: 1320 pM
- IC50 [3]: 0.344 nM
B1: N^-1-[(4S)-4-carboxy-4-(19-carboxynonadecanoylamino)butanoyl]-Gly[Arg1,Arg17,Pro21,Pro27,His35]-h-amylin (peptide)
peptide: {C20 diacid-γGlu}-GRCNTATCATQRLANFLRHSSPNFGAIPSSTNVGSHTY-NH2
modifications: disulfide 3-8
SMILES: CC[C@H](C)[C@H](NC(=O)[C@H](C)NC(=O)CNC(=O)[C@H](Cc1ccccc1)NC(=O)[C@H](CC(N)=O)NC(=O)[C@@H]1CCCN1C(=O)[C@H](CO)NC(=O)[C@H](CO)NC(=O)[C@H](Cc1c[nH]cn1)NC(=O)[C@H](CCCNC(=N)N)NC(=O)[C@H](CC(C)C)NC(=O)[C@H](Cc1ccccc1)NC(=O)[C@H](CC(N)=O)NC(=O)[C@H](C)NC(=O)[C@H](CC(C)C)NC(=O)[C@H](CCCNC(=N)N)NC(=O)[C@H](CCC(N)=O)NC(=O)[C@@H](NC(=O)[C@H](C)NC(=O)[C@@H]1CSSC[C@H](NC(=O)[C@H](CCCNC(=N)N)NC(=O)CNC(=O)CC[C@H](NC(=O)CCCCCCCCCCCCCCCCCCC(=O)O)C(=O)O)C(=O)N[C@@H](CC(N)=O)C(=O)N[C@@H]([C@@H](C)O)C(=O)N[C@@H](C)C(=O)N[C@@H]([C@@H](C)O)C(=O)N1)[C@@H](C)O)C(=O)N1CCC[C@H]1C(=O)N[C@@H](CO)C(=O)N[C@@H](CO)C(=O)N[C@H](C(=O)N[C@@H](CC(N)=O)C(=O)N[C@H](C(=O)NCC(=O)N[C@@H](CO)C(=O)N[C@@H](Cc1c[nH]cn1)C(=O)N[C@H](C(=O)N[C@@H](Cc1ccc(O)cc1)C(N)=O)[C@@H](C)O)C(C)C)[C@@H](C)O
notes: also called compound 47

- Ratio hCT/hAmylin funct. [1]: 10.2
- hAmylin-R funct. EC50 (pM) [1]: 88 pM
- hCTR funct. EC50 (pM) [2]: 899 pM
- IC50 [3]: 0.195 nM
B2: N^-1-[(4S)-4-carboxy-4-(19-carboxynonadecanoylamino)butanoyl]-Gly[Arg1,Arg17,Pro21,Pro27]-h-amylin (peptide)
peptide: {C20 diacid-γGlu}-GRCNTATCATQRLANFLRHSSPNFGAIPSSTNVGSNTY-NH2
modifications: disulfide 3-8
SMILES: CC[C@H](C)[C@H](NC(=O)[C@H](C)NC(=O)CNC(=O)[C@H](Cc1ccccc1)NC(=O)[C@H](CC(N)=O)NC(=O)[C@@H]1CCCN1C(=O)[C@H](CO)NC(=O)[C@H](CO)NC(=O)[C@H](Cc1c[nH]cn1)NC(=O)[C@H](CCCNC(=N)N)NC(=O)[C@H](CC(C)C)NC(=O)[C@H](Cc1ccccc1)NC(=O)[C@H](CC(N)=O)NC(=O)[C@H](C)NC(=O)[C@H](CC(C)C)NC(=O)[C@H](CCCNC(=N)N)NC(=O)[C@H](CCC(N)=O)NC(=O)[C@@H](NC(=O)[C@H](C)NC(=O)[C@@H]1CSSC[C@H](NC(=O)[C@H](CCCNC(=N)N)NC(=O)CNC(=O)CC[C@H](NC(=O)CCCCCCCCCCCCCCCCCCC(=O)O)C(=O)O)C(=O)N[C@@H](CC(N)=O)C(=O)N[C@@H]([C@@H](C)O)C(=O)N[C@@H](C)C(=O)N[C@@H]([C@@H](C)O)C(=O)N1)[C@@H](C)O)C(=O)N1CCC[C@H]1C(=O)N[C@@H](CO)C(=O)N[C@@H](CO)C(=O)N[C@H](C(=O)N[C@@H](CC(N)=O)C(=O)N[C@H](C(=O)NCC(=O)N[C@@H](CO)C(=O)N[C@@H](CC(N)=O)C(=O)N[C@H](C(=O)N[C@@H](Cc1ccc(O)cc1)C(N)=O)[C@@H](C)O)C(C)C)[C@@H](C)O
notes: also called compound 46

- Ratio hCT/hAmylin funct. [1]: 17
- hAmylin-R funct. EC50 (pM) [1]: 594 pM
- hCTR funct. EC50 (pM) [2]: 10100 pM
- IC50 [3]: 0.552 nM
B3: N^ε-[2-[2-[2-[[(4S)-4-carboxy-4-(19-carboxynonadecanoylamino)butanoyl]amino]ethoxy]ethoxy]acetyl]Lys[Arg1,Arg17,Pro21,Pro27,His35]-h-amylin (peptide)
peptide: K([AEEA-γGlu-C20 diacid])RCNTATCATQRLANFLRHSSPNFGAIPSSTNVGSHTY-NH2
modifications: disulfide 3-8; N-terminus assumed
SMILES: CC[C@H](C)[C@H](NC(=O)[C@H](C)NC(=O)CNC(=O)[C@H](Cc1ccccc1)NC(=O)[C@H](CC(N)=O)NC(=O)[C@@H]1CCCN1C(=O)[C@H](CO)NC(=O)[C@H](CO)NC(=O)[C@H](Cc1c[nH]cn1)NC(=O)[C@H](CCCNC(=N)N)NC(=O)[C@H](CC(C)C)NC(=O)[C@H](Cc1ccccc1)NC(=O)[C@H](CC(N)=O)NC(=O)[C@H](C)NC(=O)[C@H](CC(C)C)NC(=O)[C@H](CCCNC(=N)N)NC(=O)[C@H](CCC(N)=O)NC(=O)[C@@H](NC(=O)[C@H](C)NC(=O)[C@@H]1CSSC[C@H](NC(=O)[C@H](CCCNC(=N)N)NC(=O)[C@@H](N)CCCCNC(=O)COCCOCCNC(=O)CC[C@H](NC(=O)CCCCCCCCCCCCCCCCCCC(=O)O)C(=O)O)C(=O)N[C@@H](CC(N)=O)C(=O)N[C@@H]([C@@H](C)O)C(=O)N[C@@H](C)C(=O)N[C@@H]([C@@H](C)O)C(=O)N1)[C@@H](C)O)C(=O)N1CCC[C@H]1C(=O)N[C@@H](CO)C(=O)N[C@@H](CO)C(=O)N[C@H](C(=O)N[C@@H](CC(N)=O)C(=O)N[C@H](C(=O)NCC(=O)N[C@@H](CO)C(=O)N[C@@H](Cc1c[nH]cn1)C(=O)N[C@H](C(=O)N[C@@H](Cc1ccc(O)cc1)C(N)=O)[C@@H](C)O)C(C)C)[C@@H](C)O
notes: also called compound 45

- IC50 [4]: 38 nM
- IC50 [5]: 0.383 nM
B4: N^ε1-[2-[2-[2-[[(4S)-4-carboxy-4-(19-carboxynonadecanoylamino)butanoyl]amino]ethoxy]ethoxy]acetyl]-[Arg17,Pro21,Pro27,Arg35]-h-amylin (peptide)
peptide: K([AEEA-γGlu-C20 diacid])CNTATCATQRLANFLRHSSPNFGAIPSSTNVGSRTY-NH2
modifications: disulfide 2-7; N-terminus assumed
SMILES: CC[C@H](C)[C@H](NC(=O)[C@H](C)NC(=O)CNC(=O)[C@H](Cc1ccccc1)NC(=O)[C@H](CC(N)=O)NC(=O)[C@@H]1CCCN1C(=O)[C@H](CO)NC(=O)[C@H](CO)NC(=O)[C@H](Cc1c[nH]cn1)NC(=O)[C@H](CCCNC(=N)N)NC(=O)[C@H](CC(C)C)NC(=O)[C@H](Cc1ccccc1)NC(=O)[C@H](CC(N)=O)NC(=O)[C@H](C)NC(=O)[C@H](CC(C)C)NC(=O)[C@H](CCCNC(=N)N)NC(=O)[C@H](CCC(N)=O)NC(=O)[C@@H](NC(=O)[C@H](C)NC(=O)[C@@H]1CSSC[C@H](NC(=O)[C@@H](N)CCCCNC(=O)COCCOCCNC(=O)CC[C@H](NC(=O)CCCCCCCCCCCCCCCCCCC(=O)O)C(=O)O)C(=O)N[C@@H](CC(N)=O)C(=O)N[C@@H]([C@@H](C)O)C(=O)N[C@@H](C)C(=O)N[C@@H]([C@@H](C)O)C(=O)N1)[C@@H](C)O)C(=O)N1CCC[C@H]1C(=O)N[C@@H](CO)C(=O)N[C@@H](CO)C(=O)N[C@H](C(=O)N[C@@H](CC(N)=O)C(=O)N[C@H](C(=O)NCC(=O)N[C@@H](CO)C(=O)N[C@@H](CCCNC(=N)N)C(=O)N[C@H](C(=O)N[C@@H](Cc1ccc(O)cc1)C(N)=O)[C@@H](C)O)C(C)C)[C@@H](C)O
notes: Derivative of human amylin; also called compound 38
